# Results: the supplement of paper PMC9112550, “Optimization of the antimicrobial peptide Bac7 by deep mutational scanning” (BMC Biology, 2022)
# System: Escherichia coli TOP10
# Assay: shrunken log2 fold change of peptide-encoding DNA abundance (4.5 h post-induction vs induction); higher = less antimicrobial activity (less host growth inhibition)
# Conditions: time post-induction: 4.5 h; library: site-saturation at positions 5, 18, 19, 20
# 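Note: peptides expressed intracellularly from a pBAD plasmid library in pooled LB shake-flask culture, induced with 0.3% L-arabinose, DNA abundance read by NGS, three biological replicates, DESeq2 with apeglm shrinkage.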
row,Sequence,shrunken log2 fold change
1,RRIRIRPPRLPRPRPRPWGAPRP,0.0191
2,RRIRTRPPRLPRPRPRPNMMPRP,-0.237
3,RRIRCRPPRLPRPRPRPLMDPRP,-0.256
4,RRIRPRPPRLPRPRPRPFTTPRP,-0.0187
5,RRIRERPPRLPRPRPRPWRYPRP,-0.176
6,RRIRHRPPRLPRPRPRPYGWPRP,-0.145
7,RRIRVRPPRLPRPRPRPHILPRP,-0.234
8,RRIRMRPPRLPRPRPRPMCWPRP,2.09
9,RRIRMRPPRLPRPRPRPIFDPRP,0.00763
10,RRIRIRPPRLPRPRPRPENNPRP,-0.36
11,RRIRVRPPRLPRPRPRPNKEPRP,0.0955
12,RRIRQRPPRLPRPRPRPESFPRP,0.0552
13,RRIRDRPPRLPRPRPRPFVTPRP,-0.0344
14,RRIRDRPPRLPRPRPRPCILPRP,1.16
15,RRIRKRPPRLPRPRPRPMSSPRP,0.0811
16,RRIRYRPPRLPRPRPRPCAHPRP,-0.0966
17,RRIRCRPPRLPRPRPRPICFPRP,-0.241
18,RRIRMRPPRLPRPRPRPPGRPRP,0.849
19,RRIRGRPPRLPRPRPRPKCDPRP,0.812
20,RRIRNRPPRLPRPRPRPCQDPRP,-0.0893
21,RRIRQRPPRLPRPRPRPISMPRP,0.0161
22,RRIRPRPPRLPRPRPRPQAVPRP,0.0933
23,RRIRMRPPRLPRPRPRPPYHPRP,-0.0913
24,RRIRWRPPRLPRPRPRPFFGPRP,0.352
25,RRIRQRPPRLPRPRPRPNYTPRP,-0.207

row,Sequence,shrunken log2 fold change
1,RRIRYRPPRLPRPRPRPEWNPRP,-0.861
2,RRIRQRPPRLPRPRPRPVVMPRP,0.0928
3,RRIRGRPPRLPRPRPRPQAGPRP,0.695
4,RRIRTRPPRLPRPRPRPPPFPRP,0.452
5,RRIRMRPPRLPRPRPRPPTRPRP,1.25
6,RRIRGRPPRLPRPRPRPVRVPRP,0.856
7,RRIRLRPPRLPRPRPRPYANPRP,-0.165
8,RRIRHRPPRLPRPRPRPASYPRP,-0.103
9,RRIRWRPPRLPRPRPRPRWDPRP,0.0641
10,RRIRLRPPRLPRPRPRPSVYPRP,-0.584
11,RRIRLRPPRLPRPRPRPDAIPRP,0.0952
12,RRIRERPPRLPRPRPRPPVFPRP,-0.152
13,RRIRPRPPRLPRPRPRPTETPRP,0.132
14,RRIRARPPRLPRPRPRPGLVPRP,0.542
15,RRIRERPPRLPRPRPRPVPPPRP,0.22
16,RRIRDRPPRLPRPRPRPEFDPRP,0.375
17,RRIRNRPPRLPRPRPRPQYRPRP,0.576
18,RRIRTRPPRLPRPRPRPIAPPRP,-0.0608
19,RRIRPRPPRLPRPRPRPNREPRP,0.026
20,RRIRIRPPRLPRPRPRPLWSPRP,-0.245
21,RRIRTRPPRLPRPRPRPKSWPRP,0.245
22,RRIRNRPPRLPRPRPRPNWMPRP,-0.199
23,RRIRYRPPRLPRPRPRPMPIPRP,-0.16
24,RRIRERPPRLPRPRPRPCFNPRP,-0.324
25,RRIRTRPPRLPRPRPRPPSAPRP,0.442

row,Sequence,shrunken log2 fold change
1,RRIRVRPPRLPRPRPRPGVEPRP,0.243
2,RRIRARPPRLPRPRPRPHEIPRP,-0.107
3,RRIRHRPPRLPRPRPRPAHSPRP,0.0457
4,RRIRIRPPRLPRPRPRPNQTPRP,-0.00271
5,RRIRQRPPRLPRPRPRPFEYPRP,-0.0368
6,RRIRDRPPRLPRPRPRPEDRPRP,0.0616
7,RRIRHRPPRLPRPRPRPSPKPRP,-0.0976
8,RRIRRRPPRLPRPRPRPPRVPRP,1.18
9,RRIRPRPPRLPRPRPRPWQDPRP,0.115
10,RRIRQRPPRLPRPRPRPNRYPRP,-0.0216
11,RRIRFRPPRLPRPRPRPDLPPRP,-0.0804
12,RRIRVRPPRLPRPRPRPGTPPRP,-0.00585
13,RRIRRRPPRLPRPRPRPQGWPRP,0.294
14,RRIRPRPPRLPRPRPRPFKMPRP,-0.384
15,RRIRVRPPRLPRPRPRPKILPRP,-0.0923
16,RRIRIRPPRLPRPRPRPTSYPRP,-0.261
17,RRIRCRPPRLPRPRPRPYAVPRP,-0.349
18,RRIRSRPPRLPRPRPRPVNFPRP,-0.262
19,RRIRVRPPRLPRPRPRPHPNPRP,-0.00326
20,RRIRARPPRLPRPRPRPPYHPRP,-0.102
21,RRIRWRPPRLPRPRPRPWTCPRP,0.0612
22,RRIRFRPPRLPRPRPRPSNMPRP,-0.935
23,RRIRQRPPRLPRPRPRPSPYPRP,-0.187
24,RRIRWRPPRLPRPRPRPLMPPRP,0.486
25,RRIRWRPPRLPRPRPRPVMCPRP,-0.0922

row,Sequence,shrunken log2 fold change
1,RRIRHRPPRLPRPRPRPNAPPRP,0.0964
2,RRIRPRPPRLPRPRPRPYGMPRP,-0.155
3,RRIRLRPPRLPRPRPRPICSPRP,-0.0252
4,RRIRQRPPRLPRPRPRPTREPRP,-0.081
5,RRIRHRPPRLPRPRPRPLWIPRP,-0.505
6,RRIRFRPPRLPRPRPRPLYNPRP,-0.644
7,RRIRGRPPRLPRPRPRPSTGPRP,-0.0729
8,RRIRARPPRLPRPRPRPLDEPRP,1.53
9,RRIRWRPPRLPRPRPRPDWLPRP,0.111
10,RRIRLRPPRLPRPRPRPQFDPRP,-0.293
11,RRIRERPPRLPRPRPRPEMGPRP,-0.116
12,RRIRHRPPRLPRPRPRPHFNPRP,-0.42
13,RRIRFRPPRLPRPRPRPFKCPRP,-2.13
14,RRIRLRPPRLPRPRPRPFKSPRP,-0.209
15,RRIRSRPPRLPRPRPRPYMWPRP,-0.744
16,RRIRGRPPRLPRPRPRPGVTPRP,0.721
17,RRIRCRPPRLPRPRPRPQHVPRP,-0.199
18,RRIRMRPPRLPRPRPRPIYCPRP,-0.163
19,RRIRQRPPRLPRPRPRPSSMPRP,-0.201
20,RRIRIRPPRLPRPRPRPYDHPRP,-0.285
21,RRIRHRPPRLPRPRPRPNKMPRP,-0.0582
22,RRIRVRPPRLPRPRPRPHDTPRP,-0.212
23,RRIRNRPPRLPRPRPRPPLPPRP,0.363
24,RRIRERPPRLPRPRPRPPLKPRP,0.322
25,RRIRERPPRLPRPRPRPRWYPRP,-0.464

row,Sequence,shrunken log2 fold change
1,RRIRRRPPRLPRPRPRPTVKPRP,0.106
2,RRIRQRPPRLPRPRPRPGHHPRP,0.245
3,RRIRRRPPRLPRPRPRPNTIPRP,-0.372
4,RRIRSRPPRLPRPRPRPHDIPRP,-0.0108
5,RRIRKRPPRLPRPRPRPYTQPRP,-0.0811
6,RRIRTRPPRLPRPRPRPCEPPRP,-0.0796
7,RRIRLRPPRLPRPRPRPQSAPRP,-0.372
8,RRIRARPPRLPRPRPRPTHIPRP,0.36
9,RRIRLRPPRLPRPRPRPQHWPRP,-0.044
10,RRIRVRPPRLPRPRPRPMSAPRP,0.262
11,RRIRVRPPRLPRPRPRPWSNPRP,-0.0426
12,RRIRIRPPRLPRPRPRPMARPRP,-0.153
13,RRIRMRPPRLPRPRPRPYIVPRP,-0.00174
14,RRIRGRPPRLPRPRPRPTMCPRP,0.805
15,RRIRCRPPRLPRPRPRPPSCPRP,-0.0847
16,RRIRPRPPRLPRPRPRPNWMPRP,0.0917
17,RRIRDRPPRLPRPRPRPADDPRP,0.637
18,RRIRNRPPRLPRPRPRPTWHPRP,0.0157
19,RRIRTRPPRLPRPRPRPSPFPRP,0.133
20,RRIRGRPPRLPRPRPRPQNTPRP,0.0999
21,RRIRHRPPRLPRPRPRPSFAPRP,0.0263
22,RRIRQRPPRLPRPRPRPYEMPRP,-0.153
23,RRIRLRPPRLPRPRPRPIRRPRP,0.0431
24,RRIRTRPPRLPRPRPRPRKCPRP,-0.1
25,RRIRNRPPRLPRPRPRPHSWPRP,0.00366

row,Sequence,shrunken log2 fold change
1,RRIRDRPPRLPRPRPRPMYGPRP,-0.0676
2,RRIRSRPPRLPRPRPRPFMVPRP,-0.337
3,RRIRTRPPRLPRPRPRPLTMPRP,-0.27
4,RRIRCRPPRLPRPRPRPELHPRP,0.0685
5,RRIRHRPPRLPRPRPRPKRNPRP,0.0354
6,RRIRMRPPRLPRPRPRPHPAPRP,0.903
7,RRIRMRPPRLPRPRPRPCVHPRP,0.0648
8,RRIRPRPPRLPRPRPRPILSPRP,-0.038
9,RRIRKRPPRLPRPRPRPLETPRP,0.361
10,RRIRWRPPRLPRPRPRPQKWPRP,0.00891
11,RRIRKRPPRLPRPRPRPVEPPRP,0.505
12,RRIRFRPPRLPRPRPRPRPGPRP,0.837
13,RRIRDRPPRLPRPRPRPVIAPRP,0.224
14,RRIRYRPPRLPRPRPRPWFYPRP,-1.48
15,RRIRERPPRLPRPRPRPLCPPRP,-0.393
16,RRIRIRPPRLPRPRPRPFSTPRP,-0.38
17,RRIRLRPPRLPRPRPRPPWSPRP,0.259
18,RRIRMRPPRLPRPRPRPIHDPRP,0.0367
19,RRIRIRPPRLPRPRPRPCEKPRP,-0.626
20,RRIRTRPPRLPRPRPRPPKFPRP,-0.025
21,RRIRQRPPRLPRPRPRPFSFPRP,-0.272
22,RRIRMRPPRLPRPRPRPRSTPRP,0.888
23,RRIRERPPRLPRPRPRPQVNPRP,-0.129
24,RRIRKRPPRLPRPRPRPGWTPRP,0.438
25,RRIRNRPPRLPRPRPRPDEDPRP,0.421
